Data reported in a protein production outcome set (Wang et al. 2014).

Test: label from the status in PepcDB records

| Sequence | protein production |
| --- | --- |
| MYVFTIGYFTIPANLFSLITSRYSAERKNVGGIVIINLIAGISSSLVFALLVPYYISLTKLDVPIYFYSAISLIILTYLLTVTNSIAQGRTPKIVGISALIFQVLRLVSGIIFMFIFNLSILAVILAYSIGYLAQVLFNLFFIRANLKIDFKVAFSAVRKAVVYIANYIQYILEASIVWITLGIVNSDLVVAYFESAIIVSNIQIGHKQYIQGLWLS | failed |
| MMKRVNSHGSDYWRKNGCDFTDHRAFAPVKILDVAQIKENPMSEQIELIRLAIFFSVLVICALWESNRPRKTLSQSKRVRWLNNLGLVGFNSLLITALMPILAFSAAQWAQSQQFGLLYWLEIPPFIALFVAVVLLDAVIYWQHLLFHRIPLLWRLHRMHHADQDIDVTTGSRFHPLEIMISAWIKIGAVTLLGASPLAVVVFEILLNASAMFNHSNAKLPYKIDQWLRLLVVTPDMHRVHHSVLVHETHSNFGFFLSIWDKMFHTYIAQPEMGHERMKIGLPLFRQAREQWLDKMLTQPFRER | failed |
| MMDIVEIIIGFIALLMTARIFLERSRARKLLYLCCLSFCISALIALYVDSPMGGIVAITYFICSTISSNAIAYTIEQTKHIE | failed |
| MAYSLSPKKAGLPREVLKWLQSLDLSFFPKNVRRDFSNGYLVAEVFSWYFPRDFQMHSFDNGTSLAAKQSNWSQIEKFFVKQNISLVKEMIDGTIHCKPGAAELLVQEIYTILTNRSIQAIQRVEQGFTDKPYQDQLPMVARATASVSIKSNLSLTEVKAEPNIITNQRKVLAIIHRHLEQRKEERVQDPKRFNVKPTLGEQAVRLLAHQHEPNLQMNTSQAAC | failed |
| MEDKRISEKESLELIACMIRETQDNTARYAAYPLLIWGYTTVAISLVVWYFYLQTGVWQINFLWFALPVIAGPLTIFFNRKDKNKGAKNYIDRVTGQIWAVFGVVGFCLSCMAFVVRIDILFVISLLMGMGATLTGLVCKYKPLSIAGMTGIALSFSMLFIHGSGVYLVFAAIFIVMMIVPGHIMNKQMKKQCLKN | failed |
| MNGVELTLTGAEVLLPGGPARRDLCLSGGQVVDAPAGRQVDLSGYLVLPGIVDLHGDGFERHMAPRRGAMKEMGEGVVAAEAELAANGITTAVLAQFWSWEGGLRGPDFAAGVFQAIRQVQGSLVTDLIPQLRFETHLLEDYAALPDRLAEWQVPYVVFNDHLPHDRLAEGRKPPRLAGQALKAGRSPEAHLALLQALHANGPQVPAALDKLCAELHRRGVRMGSHDDHSAEDCATGQGRGLTISEFPETLEAAEATRASGGHVILGSPNVVRGGSHKGNVSALDLITMGLCDALASDYHYPSPRRAALMLVRTGLLDLAAAWALVSSGPARVLGLDDRGELAPGKRADLVILDAQSHRVAATFAAGRVSYMSGDVATRFLA | failed |
| MSLSLLVIGSLAFDDIETPFGRSDNTLGGSSTYIALSASYFTDEPIRMVGVVGSDFGKEHFDLLHAKNIDTRGIQVIEDGKTFRWAGRYHYDMNTRDTLDTQLNVFAEFDPHVPQYYRDSKFVCLGNIDPELQLKVLDQIDDPKLVVCDTMNFWIEGKPEELKKVLARVDVFIVNDSEARLLSGDPNLVKTARIIREMGPKTLIIKKGEHGALLFTDNGIFAAPAFPLESIYDPTGAGDTFAGGFIGHLARCGNTSEAEMRKAVLYGSAMASFCVEQFGPYRYNDLDLLEVDDRYQSFLELSRIEEGHHHHHH | not failed |
| MKRKKLSIFILSAAIVTSSVSYGMTAKADEVKETKGYNYNVNLSEQKAVANNKISVKKVNGEILGYANPFTMLQILNMNGKTVEVITQSGLRGYVDANEFTLVESAVNDKLIEKNIEGHVTNVSTVLNLRKEPRIGAEIINRLLNNTKVNILGKQGSWYKIELNGQKGYVYGMFLNEGTMKENSSKTIANKKSEVKSKDKKEKKSSVKKEAKKEVVSGVKAKVVQKQREEAKANMTSEAKPAINKDAKSNNKVEVKSEVKKEAKNEVKTEMNSSTKVETSQVVTSEMVQAVNTEVKSEKNQEANLQVRPEIKSEEKTEMISKENLNVIPEAKKEGISEEIKPEVNTEVESKPEMNKEVKAEEGKTAPEVKLEEKQEVKPVEASEEKVEVKKEEVQDPKAKEMDELLKSEEYKFLRMSISYGERLVDRNDVYTKDSLKILRTELEKAKKVFQDKDNLTMKLVQDTRDDLERAIVDLVKISDVKKPVKSKAKVEVKKESNTEKKQEVKEQPAKAEVIVPEVKENKEIKKEEPVKAKEVVKEKKSREEEIEEILKSEEYRFLLKDIAYGERLSEKITVYTRDSLKVLNAAIEKAGRIVRQKEKLTVKLVQDTRDDVDRAIVDLVKKNN | failed |
| MTQSAPEFKVLQSIAFLAVVLQSSLLYTMNQGNVLLEQSLIMGMLFNLAKFSAPAFIFIVGFHLIRHYTKQLVYKEYISEKATHLLIPYFFWSILYLLTTNDLITLQGGIKSLLLGTAAPHLWYVIMMFQIHLLFPLLCTLFYWFQKRTENKKDIYKYMTFFACLYFLLMWFSSHYIFNGEKLTSSTILHYTDRSFLFYSFYFVMGGIAAVPLKTWRLFVMKHIPLITILFFILFLFINYELFSFYGANSIHLTVSTYLKPSMFLYIVCEIIILYVLSIMIVQRRGFLYKTLRFIGNYTYGAYLAHLFFLQLCTKFLSLFTLQENTILYSLLLFVLTAIISISTMVICSTIPFHTWITGPSPTTKMKWTKVVFRKNHKKLFKPYI | failed |
| MDFVPSLPTLIAFTIAILLLAVTPGPDMTLWISRSLREGRAAGFMTLVGTNIGITVHTMLVAFGVAALIVASPTAFMILKTGGAAYLVWLAIQAIRKGSDFVMVKSTGEKAQASLKSALLNGIWVNLLNPKVIIFFMTFLPQFVSATDPHVTGKLIFLGIWSIIVALPIGIGIVVTADILSAWLQRNRKVLRGLDYTIAGVFSLFAVKIFFTQTR | failed |
| MNTMLNPHYQQIWQTVQLIPQGKVACYGQIADLAGLPGRARLVGKSLGKVPKDGWRGQRVPWFRVINSQGKISFPPGSENFDKQKHHLQDEQVVVIGSRIKLKEFQWKPDLSELLFSLEFLEHHHHHH | failed |
| MSYLVVTIKVILITGMPGSGKSEFAKLLKERGAKVIVMSDVVRKRYSIEAKPGERLMDFAKRLREIYGDGVVARLCVEELGTSNHDLVVFDGVRSLAEVEEFKRLLGDSVYIVAVHSPPKIRYKRMIERLRSDDSKEISELIRRDREELKLGIGEVIAMADYIITNDSNYEEFKRRCEEVTDRVLKNG | failed |
| DAHSTIDSRIIHFKLEFANEFLAEKLQVALQSPVYNIYRLRIIDGKPYVLEQTYMSTDVIPGITEDILQKSIYNYIEGKLGLHIASATKILRASSSSENEQHYLQLLPTEPVFEVEQVAYLDNGTPFEYSISRHRYDLFE | not failed |
| MAAHDDDMNRGIRPGRGSDDPAGQIAYLEQEIAVLRRKLADSPRHTRILEERIVELQTNLAGVSAQNERLANTLREARDQIVALKEEVDRLAQPPAGFGVFLTANEDGTADIFTGGRKLRVNVSPSVELEELRRGQELMLNEALNVVEAMEYESVGDIVTLKEILEDGERALVVGHTDEERVVRLAEPLLDVTIRPGDALLLEPRSGYVYEVVPKSEVEELVLEEVPDIGYEQIGGLGNQIEMIRDAVELPYLYPDLFKEHELRPPKGVLLYGPPGCGKTLIAKAVANSLAKKVAEVTGQATGKSFFLNIKGPELLNKYVGETERQIRLVFQRAREKASEGTPVIVFFDEMESLFRTRGSGVSSDVENTIVPQLLAEIDGVEGLQNVVVIGASNREDMIDPAILRPGRLDVKIKIERPDAEAAKDIFGKYLTERLPLHTEDVGEHGGDRSATVHGMIQTAVEQMYAESEENRFLEVTYANGDKEVLYFKDFNSGAMIENIVGRAKKMAIKDFLEHSQKGLRVSHLLQACVDEFKENEDLPNTTNPDDWARISGKKGERIVYIRTLITGKQGADTGRSIDTVANTGQYL | failed |
| MDTLPHHLLDEILFRIDHRSLAMIQCTNRSLQSHISKTPNFASEYFSRIRSSLLYIATHGCPLICYHLYGDSRSPRTVETLTQCHILGYCSGLLLLFLNKNLCVANPLTKKFRFLNHSRSKFFPTDFTLRGGRQQVIGFAVDQTDRTTPSFKIVNIKEGAVHWLRNDGSIVAFNLKTEKARLIPIRFPKELCLKTLFTAVDNNLTLISATEEVIYVYAFHNILSDPKWVLVKQIRNGVLDEKRLYSWYVEAYDGKSLVLRETILKKDYYNKHLKQVLHGYDLRANKWEVIGSIPEWSPSGLDFYQFTPSPSSVIGLDDKEGEEILACDDKRIPSVNAIMRLIYGIS | failed |
